Experiment [1] addresses human C1q (human) (UniProt P02745). Briefly: cell-based or functional assay.
Experiment [2] concerns the target CD20 antigen (UniProt P11836). Put plainly: flow cytometry on WIL2-S cells.
In experiment [3] the target is human C1q (human) (UniProt P02745). Briefly: C1q binding ELISA. Background: ELISA stands for enzyme-linked immunosorbent assay.
Experiment [4] has as its target FcγRI α subunit-GST fusion (UniProt P12314). Put plainly: ELISA on coated FcγRI α subunit-GST fusion, IgG at 10 µg/ml.
Experiment [5] has as its target FcγRIIb α subunit ECD-6His-GST fusion protein (UniProt P31994). Put plainly: ELISA, E27:chimeric IgE:VEGF immune complex on coated receptor.
Experiment [6] addresses FcγRIIa α subunit ECD-6His-GST fusion protein (UniProt P12318). The experiment is described as above.
For experiment [7], the target named is FcγRIIIa α subunit ECD-6His-GST fusion protein (UniProt P08637). Described as above.
Chain of FcγRIIIa α subunit ECD-6His-GST fusion protein (P08637 other isoform, or with tags, fused parts or gaps): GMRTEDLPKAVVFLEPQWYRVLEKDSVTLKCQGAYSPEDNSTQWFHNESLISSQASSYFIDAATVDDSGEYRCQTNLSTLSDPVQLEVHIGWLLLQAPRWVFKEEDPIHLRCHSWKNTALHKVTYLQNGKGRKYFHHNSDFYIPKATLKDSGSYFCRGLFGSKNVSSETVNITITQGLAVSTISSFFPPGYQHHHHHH

Chain of human C1q (human) (P02745 23-245 limits assumed, chain 1 of 3): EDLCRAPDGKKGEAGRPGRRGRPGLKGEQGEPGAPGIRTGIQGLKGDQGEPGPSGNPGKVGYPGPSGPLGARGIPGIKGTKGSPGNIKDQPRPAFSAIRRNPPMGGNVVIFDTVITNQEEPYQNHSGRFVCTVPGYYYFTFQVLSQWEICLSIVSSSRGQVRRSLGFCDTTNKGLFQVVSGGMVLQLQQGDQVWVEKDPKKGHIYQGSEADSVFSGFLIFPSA
Chain of human C1q (human) (P02746 28-253 limits assumed, chain 2 of 3, further chain): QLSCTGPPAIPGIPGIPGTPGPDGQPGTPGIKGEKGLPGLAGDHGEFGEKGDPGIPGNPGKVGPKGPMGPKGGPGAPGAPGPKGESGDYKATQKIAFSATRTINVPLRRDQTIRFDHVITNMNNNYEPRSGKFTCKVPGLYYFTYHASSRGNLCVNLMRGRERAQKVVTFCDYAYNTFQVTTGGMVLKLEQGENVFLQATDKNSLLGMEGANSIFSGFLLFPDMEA
Chain of human C1q (human) (P02747 29-245 limits assumed, chain 3 of 3, further chain): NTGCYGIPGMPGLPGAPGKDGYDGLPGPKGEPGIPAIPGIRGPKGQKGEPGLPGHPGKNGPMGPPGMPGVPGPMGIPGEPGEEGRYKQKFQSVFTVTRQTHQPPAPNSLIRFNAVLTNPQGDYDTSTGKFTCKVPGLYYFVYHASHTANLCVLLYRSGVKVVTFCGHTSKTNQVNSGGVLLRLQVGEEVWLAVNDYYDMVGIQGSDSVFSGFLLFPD
Chain of FcγRI α subunit-GST fusion (P12314 other isoform, or with tags, fused parts or gaps): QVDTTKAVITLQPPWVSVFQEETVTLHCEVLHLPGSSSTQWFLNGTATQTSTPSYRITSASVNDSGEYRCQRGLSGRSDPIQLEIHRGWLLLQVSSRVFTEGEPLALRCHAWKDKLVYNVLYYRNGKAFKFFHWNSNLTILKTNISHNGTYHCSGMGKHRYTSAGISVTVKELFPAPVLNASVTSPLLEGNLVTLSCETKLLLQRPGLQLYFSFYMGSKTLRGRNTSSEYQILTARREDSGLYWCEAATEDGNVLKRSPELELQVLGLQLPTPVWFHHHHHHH
Chain of FcγRIIb α subunit ECD-6His-GST fusion protein (P31994 other isoform, or with tags, fused parts or gaps): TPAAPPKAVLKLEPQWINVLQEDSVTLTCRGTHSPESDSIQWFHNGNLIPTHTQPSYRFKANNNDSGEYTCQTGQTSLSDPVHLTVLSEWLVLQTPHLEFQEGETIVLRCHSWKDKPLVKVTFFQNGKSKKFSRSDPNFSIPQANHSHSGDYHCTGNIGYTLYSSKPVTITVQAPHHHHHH
Chain of CD20 antigen (P11836 whole entry): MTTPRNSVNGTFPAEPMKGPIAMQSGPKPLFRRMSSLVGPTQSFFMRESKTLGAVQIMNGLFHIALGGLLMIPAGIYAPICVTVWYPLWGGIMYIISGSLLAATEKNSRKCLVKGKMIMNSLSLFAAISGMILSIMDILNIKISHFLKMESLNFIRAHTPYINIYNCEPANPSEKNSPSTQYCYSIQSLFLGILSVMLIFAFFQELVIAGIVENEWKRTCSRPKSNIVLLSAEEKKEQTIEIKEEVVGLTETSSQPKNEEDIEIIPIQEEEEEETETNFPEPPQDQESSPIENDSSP
Chain of FcγRIIa α subunit ECD-6His-GST fusion protein (P12318 other isoform, or with tags, fused parts or gaps): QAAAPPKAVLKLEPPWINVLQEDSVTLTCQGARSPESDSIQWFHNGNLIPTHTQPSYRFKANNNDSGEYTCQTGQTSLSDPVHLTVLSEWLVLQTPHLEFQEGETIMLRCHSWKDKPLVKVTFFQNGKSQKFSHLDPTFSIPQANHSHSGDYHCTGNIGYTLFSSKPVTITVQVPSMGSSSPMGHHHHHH

The substance C2B8 mutant E318A (antibody) returned a CDC (percentage of the wild type) in experiment [1] of 108%. This substance gave an EC50 as percentage of the wild type in experiment [2] of 89%. Also, the decrease in binding against wild type C2B8 in experiment [3] is 30%.

For C2B8 mutant K320A (antibody), in experiment [1], the CDC (percentage of the wild type) is 108%. This substance showed an EC50 as percentage of the wild type in experiment [2] of 102%.

Take C2B8 mutant P329A (antibody): in experiment [2], the EC50 as percentage of the wild type stood at 112%.

The substance C2B8 mutant P331A (antibody) came in with an EC50 as percentage of the wild type in experiment [2] of 103%. The same substance registered a fold lower binding than wild type C2B8 in experiment [3] of 60 fold.

E27 anti-IgE antibody mutant E318A: the binding as percentage of the wild type in experiment [4] was 93%; in experiment [5], 106%; in experiment [6], 113%; in experiment [7], 104%.

In the case of E27 anti-IgE antibody mutant K320A, the binding as percentage of the wild type in experiment [4] is 102%; in experiment [5], 83%; in experiment [7] it was 72%.

Take E27 anti-IgE antibody mutant K322A: the binding as percentage of the wild type was found to be 90% in experiment [4], 101% in experiment [5], 109% in experiment [6] and 90% in experiment [7].

As to E27 anti-IgE antibody mutant P329A, the binding as percentage of the wild type was determined as 104% in experiment [4] and 85% in experiment [7].

For the substance E27 anti-IgE antibody mutant P331A, the binding as percentage of the wild type in experiment [4] worked out at 74%; in experiment [5], 58%; in experiment [6], 86%; in experiment [7], 73%.

In the case of wild type E27 anti-IgE antibody, the binding as percentage of the wild type in experiment [4], in experiment [5], in experiment [6] and in experiment [7] was 100% each time.

Values taken from patent publication EP1068241B1.
